Test results from PMC8126837 (Proceedings of the National Academy of Sciences of the …, 2021).

Each binder was assayed against T1, SARS-CoV-2 receptor-binding domain (RBD), wild type (SARS-CoV-2, UniProt P0DTC2, DyLight 488 (NHS ester, about 1.9 dye/protein) in the FRET assay only) (assay: cell-based or functional assay). Details: not given.

Binder	other
WNb 67 (VHH) VHH: QVQLQESGGGLVQPGGSLRLSCAVSGFTLDYYAIGWFRQAPGKEREGVSCISSSGGSTNYADSVKGRFTISRDNATNTVYLQMNSLKPEDTAVYYCAAIAATYYGGSYYYQCPHYGMDYWGKGTQVTVSS	≤ 80 nM
WNb 41 (VHH) VHH: QVQLQESGGGLVQPGGSLRLSCAVSGFTLDYYAIGWFRQAPGKEREGVSCISSSGGSTNYADSVKGRFTISRDNAKNTVYLQMNGLKPEDTAVYYCAAIAATYYSGSYYYQCPHDGMDYWGKGTQVTVSS	≤ 80 nM
WNb 50 (VHH) VHH: QVQLQESGGGLVQPGGSLRLSCAASGFTFSSYAMGWFRQVPGKGLEWVSGIYSDGSTYYADSVKGRFTISRDNAKNTVYLQMNSLKPEDTAVYYCAADRMAGSRWPERDFGSWGQGTQVTVSS	≤ 80 nM
WNb 53 (VHH) VHH: QVQLQESGGGLVQPGGSLRLSCAASGFTFSSYLMGWARQVPGKGLEWVAGIYSDGSTYYADSVKGRFIISRDNAKNTVYLQMNSLKPEDTAVYYCAKDRMEDSTWPERDFGSWGQGTQVTVSS	≤ 80 nM
WNb 19 (VHH) VHH: QVQLQESGGGLVQPGGSLRLSCAASGSMFSINVMGWYRQASGKQRELVAGITRDGATNYSDSVKGRFTISGDNAKNTVYLQMNSLKPEDTAVYYCNTNVDSVWGSRIDYFGQGTQVTVSS	≤ 80 nM

Each binder was assayed against T1, SARS-CoV-2 receptor-binding domain … (assay: not given). Details: not given.

Binder	binding result
WNb 34 (VHH) VHH: QVQLQESGGGLVEAGDSLRLSCAASGRTFSRYAMGWFRQAPGKEREFVAAVSWNGGNTYYADSVKGRFTISRDNAKNTLYLQMNSLKPEDTAVYYCAAGGEPVVVIKLRNANEYDFLGQGTQVTVSS	binds
WNb 24 (VHH) VHH: QVQLQESGGGLVQAGESLRLSCAASGRTFSRYAMGWFRQAPGKEREFVAAVSWNGGNTYYADSVKGRFTISRDNAKNTLYLQMNSLKPEDTAVYYCAAGGEPVVVIKLRNADEYDFLGQGTQVTVSS	binds
WNb 1 (VHH) VHH: QVQLQESGGGLVQAGGSLRLSCAASGRTFDRYAMGWFRQVPGKGLEWVSGIYSDGYTYYADSVKGRFTISRDNAKNTVYLQMNSLKPEDTAVYYCAADRMDGSSWPERDFGSWGQGTQVTVSS	binds
WNb 33 (VHH) VHH: QVQLQESGGGLVQPGGSLRLSCAASGFTFSSYLMGWARQVPGKGLEWVAGIYSDGSTYYADSVKGRFIISRDNAKNTVYLQMNSLKPEDTAVYYCAKDRMEGSTWPERDLGSWGQGTQVTVSS	binds
WNb 63 (VHH) VHH: QVQLQESGGGLVQPGGSLRLSCAASGFTFRRYLMGWARQVPGKGLEWVSGIYSDGSTYYADSVKGRFTISRDNAKNTVYLQMNSLKPEDTAVYYCAADRMDGSTWPERDFGSWGQGTQVTVSS	binds
WNb 6 (VHH) VHH: QVQLQESGGGLVQPGGSLRLSCAASGFTFSSYAMGWFRQVPGKGLEWVSGIYSDGSTYYADSVKGRFTISRDNAKNTLYLQMNSLKPEDTAVYYCAKDRLEGSSRPERDFGSWGQGTQVTVSS	binds
WNb 14 (VHH) VHH: QVQLQESGGGLVQPGGSLRLSCAASGFTFSSYAMGWARQVPGKGLEWVSGIYSDGSTYYADSVKGRFIISRDNAKNTVYLQMNSLKPEDTAVYYCAKDRMEGSSWPERDFGSWGQGTQVTVSS	binds
WNb 52 (VHH) VHH: QVQLQESGGGLVQPGGSLRLSCAASGFIFSSYAMGWARQVPGKGLEWVSGIYSDGSTYYADSVKGRFTISRDNAKNTVYLQMNSLKPKDTAVYYCAKDRLEGSTWPERDFGSWGQGTQVTVSS	binds
WNb 22 (VHH) VHH: QVQLQESGGGLVQPGGSLRLSCAASGFTFSSYAMGWARQVPGKGLEWLSGIYSDGSTYYADSVKGRFTISRDNAKNTVYLQMNSLKPEDTAVYYCAKDRMDGSVWPERDFGSWGQGTQVTVSS	binds
WNb 60 (VHH) VHH: QVQLQESGGGLVQPGGSLRLSCAASGFTFSSYLMGWFRQVPGKGLEWVAGIYSDGSTYYADSVKGRFTISRDNAKNTVYLQMNSLKPEDTAVYYCATDRMDGSSWPERDFGSWGQGTQVTVSS	binds
WNb 54 (VHH) VHH: QVQLQESGGGLVQPGGSLRLSCAASRFTFSSYAMGWARQVPGKGLEWVSGIYSDGSTYYADSVKGRFIISRDNAKNTVYLQMNSLKPEDTAVYYCAKDRMEGSVWPERDFGSWGQGTQVTVSS	binds
WNb 35 (VHH) VHH: QVQLQESGGGLVQPGGSLRLSCAASGFTFSSYAMGWARQVPGKGLEWVSGIYSDGTTYYADSVKGRFTISRDNAKNTVYLQMNSLKPEDTAVYYCAADRMEGSTWPERDFGSWGQGTQVTVSS	binds
WNb 9 (VHH) VHH: QVQLQESGGGLVQPGGSLRLSCAASGFTFSSYAMGWARQVPGKGLEWVSGIYSDGSTYYGDSVKGRFTISRDNAKNTVYLQMNSLKPEDTAVYYCAKDRMAGSSWPERDFGSWGQGTQVTVSS	binds
WNb 13 (VHH) VHH: QVQLQESGGGLVQPGGSLRLSCAASGFTFSSYAMGWFRQVPGKGLEWVSGIYSDGSTYYADSVKGRFTISRDNAKNTVYLQMNSLKPEDTAVYYCATDRMAGSRWPERDFGSWGQGTQVTVSS	binds
WNb 68 (VHH) VHH: QVQLQESGGGLVQPGGSLRLSCAASGFTFSSYLMGWARQVPGKGLEWVAGIYSDGSTHYANSVKGRFTISRDNAKNTVYLQMNSLKPEDTAVYYCAKDRMAGSRWPERDFGFWGQGTQVTVSS	binds
WNb 45 (VHH) VHH: QVQLQESGGGLVQPGGSLRLSCAASGFTFSSYAMGWFRQVPGKGLEWVSGIYSDGSTYYADSVKGRFTISRDNAKNTVYLQMNSLKPEDTAVYYCAADRMEGSSWPERDFGSWGQGTQVTVSS	binds
WNb 58 (VHH) VHH: QVQLQESGGGLVQPGGSLRLSCAASGFTFSSYAMGWFRQVPGKGLEWVSGIYSDGSTYYADSVKGRFTISRDNAKNTVYLQMNSLKPEDTAVYYCAADRMDGSRWPERDFGSWGQGTQVTVSS	binds
WNb 11 (VHH) VHH: QVQLQESGGGLVQAGDSLRLSCAASGGTFSSYLMGWARQVPGKGLEWVAGIYSDGSTYYADSVKGRFIISRDNAKNTVYLQMNSLKPEDTAVYYCAKDRMEGSTWPERDFGSWGQGTQVTVSS	binds
WNb 8 (VHH) VHH: QVQLQESGGGLVQPGGSLRLSCAASGFTFSSYAMGWARQVPGKGLEWVSGIYSDGSTYYADSVKGRFTISRDNAKNTVYLQMNSLKPEDTAVYYCAKDRLESSSWPERDFGSWGQGTQVTVSS	binds
WNb 27 (VHH) VHH: QVQLQESGGGLVEAGDSLRLSCAASGRTFSRYAMGWFRQAPGKEREFVAAVSWNGGNTYYADSVKGRFTISRDNAKNTLYLQMNSLKPEDTARYYCVADRGESYYYNRDSEYEWWGQGTQVTVSS	binds
WNb 25 (VHH) VHH: QVQLQESGGGLVQAGGSLRLSCVTSGLTFSRAAMGWFRQAPEKEREFVASIHWRGLNIAYADSVKGRFTISRDDAKNTLYLQMNSLKTEDTAVYYCAAIPFYYFDHISPFSRAAAYWGQGTQVTVSS	binds
WNb 17 (VHH) VHH: QVQLQESGGGLVQPGGSLRLSCAASGSIFSINVMGWYRQAPGKQRELVAAITSVGSTNYADSVKGRFTISRDNAENTVYLQMNSLKPEDTAVYYCNAVSTFTQAMGGSPEHYWGQGTQVTVSS	binds
WNb 26 (VHH) VHH: QVQLQESGGGLVQAGGSLRLSCVVSGRTFSPYAMGWFRQAPGKEREFVAGMSWSSGKYYADSVKGRFTISRDGAKNAVYLQMNSLKPEDTAVYYCGAGGEGYSRGRVNLQPDFWGQGTQVTVSS	binds
WNb 29 (VHH) VHH: QVQLQESGGGLVQPGGSLRLSCAFSGRTFSMYAMGWFRQAPGKEREFVAVIDDGGGRTYYADSVKGRFTISRDNAKNTVYLQMNSLKTEDTAVYCCAADMGFGYTIWADSYDYWGQGTQVTVSS	binds
WNb 62 (VHH) VHH: QVQLQESGGGLVQAGGSLRLSCTASRRTFSTCVMGWARQVPGKGLEWVSGIYSDGSTYYADSVKGRFTISRDNAKNTVYLQMNSLKPEDTAVYYCNLDGRYENLEDDYWGQGTQVTVSS	binds

Each binder was assayed against T1, SARS-CoV-2 receptor-binding domain … (assay: BLI). Details: both partners purified.

Binder	Kd
WNb 2 (VHH, source: expressed and purified) VHH: QVQLQESGGGLVQPGGSLRLSCAVSGFTLDYYAIGWFRQAPGKEREGVSCISSSGGNTKYADSVKGRFTASRDNAKNTFYLQMNSLKPEDTAVYYCAAIAATYYSGSYYFQCPHDGMDYWGKGTQVTVSS	< 500 pM
WNb 7 (VHH) VHH: QVQLQESGGGLVQPGGSLRLSCAAPGFTFSSYAMGWFRQVPGKGLEWVSGIYSDGSTYYADSVKGRFTISRDNAKNTVYLQMNSLKPEDTAVYYCAKDRLEGSSWPERDFGSWGQGTQVTVSS	< 500 pM
